Laboratory results from US20050026827A1, “Octapeptide bombesin analogs” (Societe de Conseils de Recherches et d'Applications …, priority 1987, published 2005).
Like-named read-outs stand apart in the source and are kept apart here. Non-standard residues stand in square brackets, D forms with d. Residues, ends and D or L forms follow the SMILES beside them. No end group written: not given here. *: point of attachment. dPhe(F5) = N[C@H](Cc1c(F)c(F)c(F)c(F)c1F)C(=O)O; X2 = CC(C)C[C@@H](CN[C@@H](CC(C)C)C(N)=O)N*; Sta = CC(C)C[C@H](N)[C@@H](O)CC(=O)O; pGlu = O=C1CC[C@@H](C(=O)O)N1; dNMeA = CN[C@H](C)C(=O)O

Assays:
bombesin receptor = molecular target: T1, bombesin receptor (Rattus norvegicus, UniProt P52500); assay: Displacement of 125I-labeled bombesin from rat pancreatic acini cells; format: binding; conditions: read-out: half-maximal effective dose, displacement of 125I-labeled bombesin
T1 construct: displace ^125I-labeled bombesin from rat pancreatic acini cells; from tissue; host or cells: rat pancreatic acini cells
T1 sequence (P52500 whole entry): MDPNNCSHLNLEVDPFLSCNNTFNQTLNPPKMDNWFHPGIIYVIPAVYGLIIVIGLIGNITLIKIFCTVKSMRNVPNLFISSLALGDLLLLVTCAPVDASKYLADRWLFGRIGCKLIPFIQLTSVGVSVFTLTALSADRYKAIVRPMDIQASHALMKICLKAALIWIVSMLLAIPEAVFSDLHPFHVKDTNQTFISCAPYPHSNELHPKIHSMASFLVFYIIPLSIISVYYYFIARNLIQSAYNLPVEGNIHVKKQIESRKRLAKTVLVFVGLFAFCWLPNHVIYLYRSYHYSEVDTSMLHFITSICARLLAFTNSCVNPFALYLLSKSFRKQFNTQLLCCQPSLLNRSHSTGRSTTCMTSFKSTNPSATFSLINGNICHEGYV
Text: D-Phe-Gln-Trp-Ala-Val-N-methyl-D-Ala-His-Leu-methylester and D-F5-Phe-Gln-Trp-Ala-Val-D-Ala-His-Leu-methylester were examined for their abilities to displace ^125I-labeled bombesin from rat pancreatic acini cells and to inhibit amylase release from these cells produced by bombesin itself.

[1] = molecular target: T2, 3T3 fibroblast bombesin receptors (3T3 GRP receptor) (Mus musculus, UniProt P21729); assay: In vitro inhibition of [125I]GRP binding to 3T3 fibroblast bombesin receptors; parameters: species or system murine; conditions: for activity in the 3T3 GRP receptor binding assay (in words): Table 1
T2 construct: Membranes from various tissues (rat brain, rat pancreas, rat anterior pituitary, SCLC, 3T3 cells) are prepared by homogenization; endogenous in cells; host or cells: 3T3 fibroblasts (membrane preparation)
T2 sequence (P21729 whole entry): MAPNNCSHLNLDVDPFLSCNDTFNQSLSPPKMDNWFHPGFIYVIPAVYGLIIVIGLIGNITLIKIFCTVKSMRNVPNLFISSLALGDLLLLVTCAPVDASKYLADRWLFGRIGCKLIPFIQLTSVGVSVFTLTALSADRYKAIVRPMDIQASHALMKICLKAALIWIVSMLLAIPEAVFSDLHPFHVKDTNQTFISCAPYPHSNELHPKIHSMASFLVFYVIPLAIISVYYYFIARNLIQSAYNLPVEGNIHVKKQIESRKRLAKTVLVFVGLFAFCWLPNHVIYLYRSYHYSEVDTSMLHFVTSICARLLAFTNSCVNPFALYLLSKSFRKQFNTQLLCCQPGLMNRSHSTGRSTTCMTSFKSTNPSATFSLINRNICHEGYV
Description: Phase 4—In Vitro Inhibition of [^125I] Gastrin Releasing Peptide (GRP) Binding to Bombesin Receptors
Membranes from various tissues (rat brain, rat pancreas, rat anterior pituitary, SCLC, 3T3 cells) are prepared by homogenization in 50 mM TrisHCl containing 0.1% bovine serum albumin and 0.1 mg/ml bacitracin followed by two centrifugations (39,000×g×15 min., 4° C.) with an intermediate resuspension in-fresh buffer. For assay, aliquots […] are incubated with 0.5 nM [^125I]GRP (˜2000 Ci/mmol, Amersham Corp.) and various concentrations of the test compounds in a final volume of 0.5 ml. After a 30 minute incubation at 4° C., the binding reaction is terminated by rapid filtration through Whatman GF/C filters that have been pre-soaked in 0.3% aqueous polethyleneimine to reduce the level of nonspecific binding. The filters and tubes are washed three times with 4 ml aliquots of ice-cold buffer, and the radioactivity trapped on the filters is counted by gamma-spectrometry. Specific binding is defined as the total. [^125I]GRP bound minus that bound in the presence of 1000 nM. bombesin or a related peptide.
(§1) A number of analogs of bombesin or GRP, each containing a non-peptide bond or a statine, AHPPA, or ACHPA, β-amino acid, or γ-amino acid residue, can be synthesized and tested in one or more of the above-described Phase 1-7 assays; the results of Phase 1 and 2 tests are given in Table 1 attached hereto. […] (3T3 GRP receptor and thymidine uptake data are expressed in IC50 (nM).) Table 1 also gives results for non-peptide bond-containing analogs of one other naturally-occurring peptide, Neuromedin C, whose C-terminal seven amino acids are similar to those of bombesin and GRP. (In Table 1, “Litorin” indicates a 9 residue peptide analog or its derivative, whereas “Neuromedin C” indicates a 10 residue analog or its derivative.)

swiss 3T3 cells = swiss 3T3 cells (Mus musculus, UniProt P21729); assay: Bombesin-stimulated [3H]thymidine uptake by cultured 3T3 cells; format: cell-based, murine; conditions: Table 1
Sequence of swiss 3T3 cells (P21729 whole entry): as above
Description: Phase 1—3T3 Peptide Stimulated [^3H] Thymidine Uptake Assay
Cell Culture. Stock cultures of swiss 3T3 cells are grown in Dulbecco's Modified Eagles Medium (DMEM) supplemented with 10% fetal calf serum in humidified atmosphere of 10% CO2/90% air at 37° C. For experimental use, the cells are seeded into 24-well cluster trays and used four days after she last change of medium. The cells are arrested in the G1/G0 phase of the cell cycle by changing to serum-free DMEM 24 hours prior to the thymidine uptake assay.
Assay of DNA Synthesis. The cells are washed twice with 1 ml aliquots of DMEM (-serum) then incubated with DMEM (-serum), 0.5 μM [methyl-^3H] thymidine (20 Ci/mmole, New England Nuclear), bombesin (3 nM), and initially four concentrations of the test compounds (1, 10, 100, 1000 nM) in a final volume of 1.0 ml. After 28 hours at 37° C., [methyl-^3H] thymidine incorporation into acid-insoluble pools is assayed as follows. The cells are washed twice with ice-cold 0.9% NaCl (1 ml aliquots), and acid soluble radioactivity is removed by a 30 min. (4° C.) incubation with 5% trichloroacetic acid (TCA). The cultures are then washed once (1 ml) with 95% ethanol and solubilized by a 30 min. incubation (1 ml) with 0.1N NaOH. The solubilized material is transferred to vials containing 10 ml ScintA (Packard), and the radioactivity is determined by liquid scintillation spectrometry.
as §1

[2] = tested on: rat anterior pituitary cells; assay: Growth hormone release from primary culture of rat anterior pituitary cells (agonist potency); format: cell-based; conditions: GH release, relative to GRF(1-29)NH2 = 100; 4-point assay
Description: Phase 7—Inhibition of Growth Hormone Release
Anterior pituitaries from adult male rats, weighing 200-250 g and housed under controlled conditions (lights on from 0500-1900 h), were dispersed using aseptic technique by a previously described trypsin/DNase method (Heiman et al., Endocrinology, 1985, 116, 410) derived from other methods (Hoefer et al., Mol. Cell. Endocrinol., 1984, 35, 229).
The dispersed cells were diluted with sterile-filtered Dulbecco's modified Eagle medium (MEM) (Gibco Laboratories, Grand Island, N.Y. (GIBCO)), which was supplemented with fetal calf serum (2.5%; GIBCO), horse serum (3%; GIBCO), fresh rat serum (10% stored on ice for no longer than 1 h) from the pituitary donors, MEM nonessential amino acids (1%; GIBCO), gentamycin (10/mg/mL; Sigma) and nystatin (10,000 U/mL; GIBCO). The cells were counted with a hemacytometer (approximately 2,000,000 cells per pituitary) and randomly plated at a density of 200,000 per well (Co-star cluster 24; Rochester Scientific Co., Rochester, N.Y.). […]
Growth hormone (GH) in plasma and media was measured by a standard double antibody radioimmunoassay using components supplied by the NIDDK and the National Hormone and Pituitary Program, University of Maryland School of Medicine. […] Potencies and 95% confidence intervals were calculateds by 4-point assay (Pugsley, Endocrinology, 1946, 39, 161). […]

[3] = molecular target: 3T3 fibroblast bombesin receptors (murine (3T3 murine fibroblasts)) (UniProt P21729)
Sequence of 3T3 fibroblast bombesin receptors (murine (3T3 murine fibroblasts)) (P21729 whole entry): as above

[4] = molecular target: 3T3 fibroblast bombesin receptors (murine (3T3 murine fibroblasts)) (UniProt P21729); assay: inhibition of [125I]GRP binding to 3T3 cell membranes
[5] = molecular target: bombesin receptor of rat pancreatic acini cells (rat) (UniProt P52500)
[6] = molecular target: bombesin receptor of rat pancreatic acini cells (rat) (UniProt P52500); assay: displacement of 125I-labeled bombesin from rat pancreatic acini cells
[7] = molecular target: 3T3 fibroblast bombesin receptors (murine (3T3 murine fibroblasts), UniProt P21729); assay: inhibition of [125I]GRP binding to 3T3 cell membranes
[8] = inhibition of [125I]GRP binding, 3T3 membranes, read-out: 3T3 GRP Receptor IC50

COC(=O)[C@H](CC(C)C)NC(=O)[C@H](Cc1c[nH]cn1)NC(=O)[C@@H](C)N(C)C(=O)[C@@H](NC(=O)[C@H](C)NC(=O)[C@H](Cc1c[nH]c2ccccc12)NC(=O)[C@H](CCC(N)=O)NC(=O)[C@H](N)Cc1ccccc1)C(C)C [D-Phe-Gln-Trp-Ala-Val-N-methyl-D-Ala-His-Leu-methylester] (H-[dF]QWAV[dNMeA]HL-OMe)
IC50 (bombesin receptor): 5 to 10 nM

CC(C)C[C@@H](CN[C@@H](CC(C)C)C(N)=O)NC(=O)[C@H](Cc1c[nH]cn1)NC(=O)[C@@H](C)NC(=O)[C@@H](NC(=O)[C@H](C)NC(=O)[C@H](Cc1c[nH]c2ccccc12)NC(=O)[C@H](Cc1c[nH]cn1)NC(=O)[C@H](CC(N)=O)NC(=O)[C@@H](C)N)C(C)C [BIM-26105, D-Ala-Asn-His-Trp-Ala-Val-D-ALa-His-Leuψ[CH2CH]Leu-NH2] (H-[dA]NHWAV[dA]H-X2; N-terminus assumed)
IC50 [1]: 107 nM
activity in the 3T3 GRP receptor binding assay (in words) [1]: antagonists
activity in the 3T3 thymidine uptake assay (in words) (swiss 3T3 cells): antagonists

CC(C)C[C@@H](CN[C@@H](CC(C)C)C(N)=O)NC(=O)[C@H](Cc1c[nH]cn1)NC(=O)CNC(=O)[C@@H](NC(=O)[C@H](C)NC(=O)[C@H](Cc1c[nH]c2ccccc12)NC(=O)[C@H](Cc1c[nH]cn1)NC(=O)[C@H](N)Cc1ccccc1)C(C)C [BIM-26107, D-Phe-His-Trp-Ala-Val-Gly-His-Leuψ[CH2NH]Leu-NH2] (H-[dF]HWAVGH-X2)
activity in the 3T3 GRP receptor binding assay (in words) [1]: antagonists
IC50 [1, 8]: 199 nM
activity in the 3T3 thymidine uptake assay (in words) (swiss 3T3 cells): antagonists

GRF(1-29)NH2 [reference compound]
Potency (%) [2]: 100%

BIM-26182, D-Cpa-Gln-Trp-Ala-Val-Gly-His-β-Leu-NH2 (Litorin analog) (peptide)
bombesin-stimulated [3H]Thymidine uptake, IC50 [3]: 4.77 nM
IC50 [4]: 0.88 nM

BIM-26114, D-Nal-Gln-Trp-Ala-Val-Gly-His-Leuψ[CH2NH]Leu-NH2 (Litorin analog) (peptide)
bombesin-stimulated [3H]Thymidine uptake, IC50 [3]: 28 nM
IC50 [4]: 23.5 nM

The analogues (D-Phe-Gln-Trp-Ala-Val-N-methyl-D-Ala-His-Leu-methylester and D-F5-Phe-Gln-Trp-Ala-Val-D-Ala-His-Leu-methylester)
inhibition of amylase release produced by bombesin, half-maximal effective dose [5]: 5 to 10 nM
half-maximal effective dose [6]: 5 to 10 nM

COC(=O)[C@H](CC(C)C)NC(=O)[C@H](Cc1c[nH]cn1)NC(=O)[C@@H](C)NC(=O)[C@@H](NC(=O)[C@H](C)NC(=O)[C@H](Cc1c[nH]c2ccccc12)NC(=O)[C@H](CCC(N)=O)NC(=O)[C@H](N)Cc1c(F)c(F)c(F)c(F)c1F)C(C)C [D-F5-Phe-Gln-Trp-Ala-Val-D-Ala-His-Leu-methylester] (H-[dPhe(F5)]QWAV[dA]HL-OMe)
IC50 (bombesin receptor): 5 to 10 nM

CC(=O)N[C@H](C)C(=O)N[C@@H](Cc1c[nH]cn1)C(=O)N[C@@H](Cc1c[nH]c2ccccc12)C(=O)N[C@@H](C)C(=O)N[C@H](C(=O)NCC(=O)N[C@@H](Cc1c[nH]cn1)C(=O)N[C@H](CN[C@@H](CC(C)C)C(N)=O)CC(C)C)C(C)C [BIM-26108, N-Ac-D-Ala-His-Trp-Ala-Val-Gly-His-Leuψ[CH2NH]Leu-NH2] (Ac-[dA]HWAVGH-X2)
IC50 [1, 8]: 841 nM
activity in the 3T3 thymidine uptake assay (in words) (swiss 3T3 cells): negative results

BIM-26136, D-Nal-Gln-Trp-Ala-Val-Gly-His-Leuψ[CH2NH]Phe-NH2 (Litorin analog) (peptide)
bombesin-stimulated [3H]Thymidine uptake, IC50 [3]: 3.3 nM
IC50 [4]: 1.4 nM

B1: BIM-26101, pGlu-Gln-Trp-Ala-Val-Gly-His-Leuψ[CH2NH]Leu-NH2 (Litorin analog) (peptide)
peptide: [pGlu]QWAVGHLL-NH2
modifications: also: reduced bond ψ[CH2NH] between Leu8 and Leu9
bombesin-stimulated [3H]Thymidine uptake, IC50 [3]: 296 nM
IC50 [7]: 118 nM

B2: BIM-26122, D-Phe-Gln-Trp-Ala-Val-Gly-His-Leu-NH2 (Litorin analog) (peptide)
peptide: FQWAVGHL
modifications: D-Phe at 1; C-terminal amide
IC50 [7]: 5.9 nM

B3: BIM-26092, Gly-Asn-His-Trp-Ala-Val-Gly-His-Leuψ[CH2NH]Leu-NH2 (Neuromedin C analog) (peptide)
peptide: GNHWAVGHLL-NH2
modifications: also: reduced bond ψ[CH2NH] between Leu9 and Leu10
bombesin-stimulated [3H]Thymidine uptake, IC50 [3]: 466 nM
IC50 [7]: 242 nM

B4: BIM-26100, pGlu-Gln-Trp-Ala-Val-Gly-His-Pheψ[CH2NH]Leu-NH2 (Litorin analog) (peptide)
peptide: EQWAVGHFL
modifications: pGlu at 1 (written E); reduced peptide bond ψ[CH2NH] between Phe 8 and Leu 9; C-terminal amide
bombesin-stimulated [3H]Thymidine uptake, IC50 [3]: 26 nM
IC50 [7]: 23 nM

B5: BIM-26120, pGlu-Gln-Trp-Ala-Val-Gly-His-Sta-NH2 (Litorin analog) (peptide)
peptide: [pGlu]QWAVGH[Sta]-NH2
SMILES: CC(C)C[C@H](NC(=O)[C@H](Cc1c[nH]cn1)NC(=O)CNC(=O)[C@@H](NC(=O)[C@H](C)NC(=O)[C@H](Cc1c[nH]c2ccccc12)NC(=O)[C@H](CCC(N)=O)NC(=O)[C@@H]1CCC(=O)N1)C(C)C)[C@@H](O)CC(N)=O
bombesin-stimulated [3H]Thymidine uptake, IC50 [3]: 165 nM
IC50 [7]: 150 nM
